In patent US4016250A, “Method for testing for pregnancy” (Cornell Research Foundation, Inc., priority 1974, dated 1977):
Changes are numbered by the printed parent chain. Blank lines part the entries; values can stand above or below the molecule they belong to.

Tests used:
[1] = target: T1, PRL receptor sites in ovarian homogenates (Bos taurus, UniProt Q28172); experiment: Specificity of 125I-hPRL binding: displacement by unlabeled hormones; parameters: species or system bovine
T1 construct: from tissue; host or cells: ovarian homogenate (bovine, from the preparation section)
T1 sequence (Q28172 25-581): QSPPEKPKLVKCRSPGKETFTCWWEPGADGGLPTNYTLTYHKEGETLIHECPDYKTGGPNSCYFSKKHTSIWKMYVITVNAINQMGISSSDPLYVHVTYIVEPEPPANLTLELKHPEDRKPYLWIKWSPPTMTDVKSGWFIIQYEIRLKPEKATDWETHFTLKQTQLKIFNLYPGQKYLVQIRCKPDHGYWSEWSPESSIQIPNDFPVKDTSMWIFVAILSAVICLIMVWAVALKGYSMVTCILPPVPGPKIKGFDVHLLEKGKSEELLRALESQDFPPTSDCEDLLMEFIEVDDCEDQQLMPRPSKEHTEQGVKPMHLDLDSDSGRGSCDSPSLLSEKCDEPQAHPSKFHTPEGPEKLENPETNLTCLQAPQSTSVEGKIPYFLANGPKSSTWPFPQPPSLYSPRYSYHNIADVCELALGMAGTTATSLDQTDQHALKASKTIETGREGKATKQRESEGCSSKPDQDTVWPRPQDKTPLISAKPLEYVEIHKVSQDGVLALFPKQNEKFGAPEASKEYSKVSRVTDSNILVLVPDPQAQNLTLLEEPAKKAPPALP
Description: A reaction mixture containing 100 ul of incubation buffer containing 10 IU Trasylol (FBA Pharmaceuticals, New York, New York), 50 ul of receptor preparation equivalent to 1-300 ug of protein and 100 ul of ^125 I-hPRL (SA; 50-70 uCi/ug) were incubated at 37° C. for 2 hours in the absence and in the presence of 1 ug of unlabeled bovine PRL. At the end of incubation, 1 ml of ice cold buffer was added to all tubes and tubes were centrifuged at 5,000 rpm for 20 minutes. The supernatants were aspirated. The pellets containing receptor bound hormones were counted in an Automamma counter with a 51% efficiency for ^125 I (Packard Instrument Company, Downers Grove, Illinois). Specific binding was calculated as the difference of binding in the tubes with and without unlabeled PRL.

[2] = target: T2, receptor for HCG in plasma membranes from bovine corpora lutea (Bos taurus, UniProt Q28005); experiment: Radioreceptorassay of HCG: competition with 125I-HCG for plasma membrane receptor; type: binding; details: for cross-reaction in the radioreceptorassay of HCG: highly purified preparations, 30 minutes at 37° C
T2 construct: 100 g. of tissue from approximately 25 large corpora lutea; from tissue; host or cells: bovine corpora lutea of early pregnancy (slaughterhouse), plasma membrane fraction from zonal sucrose gradient
T2 sequence (Q28005 27-701): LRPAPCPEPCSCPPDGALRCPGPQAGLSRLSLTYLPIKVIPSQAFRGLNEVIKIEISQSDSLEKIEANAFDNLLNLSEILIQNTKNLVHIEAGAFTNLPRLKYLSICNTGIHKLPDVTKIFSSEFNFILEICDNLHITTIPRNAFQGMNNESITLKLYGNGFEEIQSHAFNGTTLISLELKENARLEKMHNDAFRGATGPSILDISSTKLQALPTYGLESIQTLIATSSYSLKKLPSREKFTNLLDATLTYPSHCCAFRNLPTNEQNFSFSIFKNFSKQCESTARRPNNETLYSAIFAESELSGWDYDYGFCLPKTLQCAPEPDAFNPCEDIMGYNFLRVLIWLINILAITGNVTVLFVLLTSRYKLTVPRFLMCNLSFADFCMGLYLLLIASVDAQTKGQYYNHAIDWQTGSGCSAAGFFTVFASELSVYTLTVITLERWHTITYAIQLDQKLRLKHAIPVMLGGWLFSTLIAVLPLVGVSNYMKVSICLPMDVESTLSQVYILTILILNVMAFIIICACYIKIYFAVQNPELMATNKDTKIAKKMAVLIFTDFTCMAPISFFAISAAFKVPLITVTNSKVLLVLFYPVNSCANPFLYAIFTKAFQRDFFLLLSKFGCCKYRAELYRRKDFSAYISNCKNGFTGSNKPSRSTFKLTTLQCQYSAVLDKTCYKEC
Description: All procedures in the preparation of plasma membranes were carried out in an ice bath or at 4° C. Fresh bovine ovaries from early pregnancy (first trimester: fetus length from crown to rump up to 22 cm.) were obtained from the slaughter house and stored in liquid nitrogen until processed. In a typical experiment, 100 g. of tissue from approximately 25 large corpora lutea were cut into small pieces with a sharp steel blade and ground in 500 ml. of 10 mM. Tris-HCl buffer of pH. 7.8 containing one mM. of MgCl2, one MM. dithiothreitol, 10,000I.U. of Trasylol (FBA Pharmaceuticals) per liter and 0.25 M. sucrose. The homogenate was filtered through two layers of cheese cloth and the larger particles were reprocessed in 500 ml. of the buffer. […] The homogenate was centifuged at 650 xg. for 20 minutes in a Sorvall refrigerated centrifuge (RC B, Rotor GSA) to remove intact cells, cell debris and nuclei. The 650 × g. supernatant was again centrifuged at 13,000 g. for 20 minutes in the same centrifuge. Supernatant was this time discarded and the pellet was resuspended in 50 to 70 ml. of the Tris-HCl buffer with the aid of the Teflon-glass homogenizer. This suspension was injected in the core of a TI-14 zonal rotor (Model Beckman Spinco L3-50) spinning at 3,000 rpm. and containing 500 ml. of a linear sucrose gradient (LKB Ultrograd 11300 pump) from 30% (w/v) to 50% (w/v) sucrose and 120 ml. of cushion of 50% (w/v) sucrose (pumping rate 20 ml./min.) An overlay of 20 ml. was injected after the sample. After two hours of centrifugation at 45,000 rpm., the centrifuge was decelerated and the rotor content displaced with 55% sucrose at 20 ml./min. […]
In Table I, the incubation was performed for 30 minutes at 37° C. in a Dunaboff water bath shaker. […] The supernates were aspirated and the pellets were counted in a Packard Autogamma counter with a 51% efficiency for I^125. The standard curves and the hormonal concentration in the plasma samples were calculated by a time sharing IBM computer using logit-log transformations.

[3] = target: T3, PRL receptor sites in plasma membrane from bovine corpora lutea (Bos taurus, UniProt Q28172); experiment: Binding of 125I-hPRL to plasma membrane / ovarian homogenate (saturation, time course)
T3 construct: plasma membrane from bovine corpora lutea; from tissue; host or cells: bovine corpora lutea, plasma membranes
T3 sequence (Q28172 25-581): T1 sequence (Q28172 25-581)
Description: […] At the end of incubation, 1 ml of ice cold buffer was added to all tubes and tubes were centrifuged at 5,000 rpm for 20 minutes. The supernatants were aspirated. The pellets containing receptor bound hormones were counted in an Automamma counter with a 51% efficiency for ^125 I (Packard Instrument Company, Downers Grove, Illinois). Specific binding was calculated as the difference of binding in the tubes with and without unlabeled PRL. Specific binding of ^125 I-hPRL to plasma membrane from bovine corpora lutea was a saturable process.

potency in competing with 125I-hPRL [1]: essentially of similar potency | effect on specific binding of 125I-hPRL to ovarian homogenates ([1]; 1 ug unlabeled hormone added): inhibited
B1: bovine PRL: bovine prolactin, unlabeled (protein, UniProt P01239 31-229, looked up)
Prolactin: TPVCPNGPGNCQVSLRDLFDRAVMVSHYIHDLSSEMFNEFDKRYAQGKGFITMALNSCHTSSLPTPEDKEQAQQTHHEVLMSLILGLLRSWNDPLYHLVTEVRGMKGAPDAILSRAIEIEEENKRLLEGMEMIFGQVIPGAKETEPYPVWSGLPSLQTKDEDARYSAFYNLLHCLRRDSSKIDTYLKLLNCRIIYNNNC

potency in competing with 125I-hPRL [1]: essentially of similar potency
B2: ovine PRL: ovine prolactin (protein, UniProt P01240 31-229, looked up)
Prolactin: B1 Prolactin with D31N, A108V, Y165H

cross-reaction in the radioreceptorassay of HCG [2]: complete lack of cross-reaction
B3: HPL: highly purified preparation of HPL, abbreviation not expanded in the text (protein, UniProt P0DML2 27-217, looked up)
Chorionic somatomammotropin …: VQTVPLSRLFDHAMLQAHRAHQLAIDTYQEFEETYIPKDQKYSFLHDSQTSFCFSDSIPTPSNMEETQQKSNLELLRISLLLIESWLEPVRFLRSMFANNLVYDTSDSDDYHLLKDLEEGIQTLMGRLEDGSRRTGQILKQTYSKFDTNSHNHDALLKNYGLLYCFRKDMDKVETFLRMVQCRSVEGSCGF

displacement of 125I-hPRL bound to receptor protein ([1]; various concentrations): capable of displacing
B4: human chorionic somatomammotropin (protein, UniProt P0DML2 27-217, looked up)
Chorionic somatomammotropin …: B3 Chorionic somatomammotropin …

cross-reaction in the radioreceptorassay of HCG (FIG. 2) ([2]; FIG. 2 legends: TSH, HGH, PRL are plasma from hypothyroid, acromegalic, postpartum lactation subjects): no cross-reaction | cross-reaction in the radioreceptorassay of HCG [2]: complete lack of cross-reaction
B5: prolactin (protein, UniProt P01236 29-227, looked up)
Prolactin: LPICPGGAARCQVTLRDLFDRAVVLSHYIHNLSSEMFSEFDKRYTHGRGFITKAINSCHTSSLATPEDKEQAQQMNQKDFLSLIVSILRSWNEPLYHLVTEVRGMQEAPEAILSKAVEIEEQTKRLLEGMELIVSQVHPETKENEIYPVWSGLPSLQMADEESRLSAYYNLLHCLRRDSHKIDNYLKLLKCRIIHNNNC

fraction of 125I-hPRL bound ([3]; 100 ug of homogenate, absence of unlabeled PRL): 20-20% | time to reach binding equilibrium ([3]; 37° C): 2 h | binding ([3]; incubation): little binding
B6: ^125 I-hPRL: human prolactin iodinated with 125I by chloramine-T or lactoperoxidase (protein, UniProt P01236 29-227, looked up)
Prolactin: B5 Prolactin
modifications: 125I label
notes: human prolactin iodinated with 125I by chloramine-T or lactoperoxidase
